These results are taken from patent publication US20220153832A1 (PIONYR IMMUNOTHERAPEUTICS, published 2022).

In experiment [1] the target is T1, Cynomolgus MARCO, full length, on cells (cynomolgus, UniProt A0A2K5X0Z2 1-519).
T1 construct: whole, on cells; also called cyno MARCO; CyMARCO
T1 sequence: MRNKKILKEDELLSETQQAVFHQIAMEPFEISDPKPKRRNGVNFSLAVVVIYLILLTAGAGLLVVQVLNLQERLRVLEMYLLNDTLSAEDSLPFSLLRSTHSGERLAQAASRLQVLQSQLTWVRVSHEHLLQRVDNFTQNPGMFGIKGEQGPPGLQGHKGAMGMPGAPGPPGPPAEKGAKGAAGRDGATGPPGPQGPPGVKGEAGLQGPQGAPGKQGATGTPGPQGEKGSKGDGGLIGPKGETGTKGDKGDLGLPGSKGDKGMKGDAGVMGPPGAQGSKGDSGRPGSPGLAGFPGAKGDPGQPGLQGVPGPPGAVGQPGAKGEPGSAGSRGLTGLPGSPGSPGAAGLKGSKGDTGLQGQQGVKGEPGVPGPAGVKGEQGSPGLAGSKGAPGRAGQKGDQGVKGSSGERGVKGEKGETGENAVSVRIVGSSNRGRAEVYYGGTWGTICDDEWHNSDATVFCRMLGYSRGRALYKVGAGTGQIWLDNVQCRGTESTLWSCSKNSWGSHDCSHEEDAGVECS
In words: flow cytometry, 293T (CyMARCO). As for the experimental part:
Supernatants were removed and cell pellets were resuspended in Ca²⁺+ and Mg²⁺+ Dulbecco's phosphate-buffered saline (D-PBS) at 1×10⁶ cells/ml. 100,000 cells/well were plated onto U-bottom 96-well plates for staining and all centrifugation steps were performed at 1500 rpm at 4° C. for 5 min and samples were kept protected from light throughout the protocol. Cells were pelleted and resuspended in 100 μl of Zombie NIR viability dye (BioLegend) prepared by diluting Zombie NIR dimethyl sulfoxide (DMSO) stock 1000-fold in D-PBS. […] Flow cytometry data were analyzed using FlowJo software (version 10.6.1) and data were processed and further analyzed in Microsoft Excel and GraphPad Prism software (version 8). Half-maximal effective concentrations (EC₅₀) were calculated based on geometric mean fluorescence intensities (gMFI). In case when the plates were not able to be analyzed on the cytometer, cells were pelleted after the washes and fixed in 100 μl of 2% paraformaldehyde (PFA), prepared by diluting the 16% (w/v) stock (Thermo Fisher) in DPBS, for 15 min at RT. […]
A general note: In flow cytometry, cells or beads pass a laser one at a time.

For experiment [2], the target named is T2, N-terminally polyhistidine tagged human MARCO ECD (147-520), recombinant (human, UniProt Q9UEW3 147-520).
T2 construct: also called PI-RG-3000; recombinant human MARCO; not shown: N-terminal polyhistidine tag
T2 sequence: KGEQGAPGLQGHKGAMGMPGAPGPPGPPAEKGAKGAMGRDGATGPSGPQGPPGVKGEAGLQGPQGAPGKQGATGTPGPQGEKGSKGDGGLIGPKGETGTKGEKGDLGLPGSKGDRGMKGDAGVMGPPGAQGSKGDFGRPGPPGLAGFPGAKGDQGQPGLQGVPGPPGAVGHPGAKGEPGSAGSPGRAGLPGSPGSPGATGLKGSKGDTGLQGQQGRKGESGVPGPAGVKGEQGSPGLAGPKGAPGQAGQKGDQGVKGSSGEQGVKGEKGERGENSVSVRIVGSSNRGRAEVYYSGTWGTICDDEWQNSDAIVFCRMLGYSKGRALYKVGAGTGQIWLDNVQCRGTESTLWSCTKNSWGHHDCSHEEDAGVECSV
In words: Biacore (SPR), binding affinity to human MARCO. The essentials:
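On a CM4 chip, anti-mouse Fc mAb was amine-coupled to a 4500 RU target and used to capture the antibodies. Their binding kinetics and affinity for N-terminally His-tagged human MARCO extracellular domain (147-520) were then measured by multi-cycle surface plasmon resonance on a Biacore T200. This was done at 25° C in 10 mM HEPES pH 7.4, 150 mM NaCl, 3 mM EDTA, 0.05% surfactant P20, with 0.625–10 nM injections, 90 s association and 600 s dissociation, and fitting in BIAevaluation 3.1.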
In general terms: Surface plasmon resonance follows binding to a sensor surface in real time, without labels.

The target in experiment [3] is T2, N-terminally polyhistidine tagged human …. Briefly: Biacore; sample oxidized with 1 mM AAPH, 6 hrs, 40 C. As for the experimental part:
(PBS)+1 mM AAPH for 6 h, 0.5 and 1.5% H₂O₂ in PBS for 24 h, which was compared to a previous experiment at 40° C. (PBS)+1 mM AAPH for 6 h. Post treatment the samples were analyzed by LC-MS/MS which identified the % modification on isolated peptides derived from the antibody after trypsin digest.
Binding of the stressed samples to recombinant human MARCO was assessed by Biacore.

Experiment [4] deals with T3, Human Macrophage Receptor with Collagenous Structure (MARCO), full length, on cells (human, UniProt Q9UEW3 1-520).
T3 construct: the cell type is named under assay; also called huMARCO; HuMARCO
T3 sequence: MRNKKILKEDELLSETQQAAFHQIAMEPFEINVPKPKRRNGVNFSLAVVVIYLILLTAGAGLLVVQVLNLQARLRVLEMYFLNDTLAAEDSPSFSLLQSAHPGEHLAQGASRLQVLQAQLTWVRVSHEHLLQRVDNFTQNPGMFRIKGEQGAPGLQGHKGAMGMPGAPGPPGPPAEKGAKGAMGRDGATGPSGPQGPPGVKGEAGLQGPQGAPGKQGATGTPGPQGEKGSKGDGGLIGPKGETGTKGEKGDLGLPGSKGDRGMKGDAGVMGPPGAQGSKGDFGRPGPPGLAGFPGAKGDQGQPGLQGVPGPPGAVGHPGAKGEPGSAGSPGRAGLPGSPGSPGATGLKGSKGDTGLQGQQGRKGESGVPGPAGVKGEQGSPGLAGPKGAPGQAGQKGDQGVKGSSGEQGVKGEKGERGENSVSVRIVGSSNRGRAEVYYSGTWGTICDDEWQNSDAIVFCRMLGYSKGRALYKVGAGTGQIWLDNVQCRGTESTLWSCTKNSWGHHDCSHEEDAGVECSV
In words: flow cytometry, cells overexpressing human MARCO; hu (first of hu/cyn).

B1: PI-HX-3031 (antibody)
heavy: QVQLKESGPGLVQPSQTLSLTCTVSGFSLTSYHVSWVRQPPGKGLEWMGAIWTGGSIAYNSLLKSRLSISRDTSKSQVFLKMNSLQTEDTATYYCARDLSDYYSSYTSFDYWGQGVMVTVSTAETTAPSVYPLAPGTALKSNSMVTLGCLVKGYFPEPVTVTWNSGALSSGVHTFPAVLQSGLYTLTSSVTVPSSTWSSQAVTCNVAHPASSTKVDKKIVPRECNPCGCTGSEVSSVFIFPPKTKDVLTITLTPKVTCVVVDISQNDPEVRFSWFIDDVEVHTAQTHAPEKQSNSTLRSVSELPIVHRDWLNGKTFKCKVNSGAFPAPIEKSISKPEGTPRGPQVYTMAPPKEEMTQSQVSITCMVKGFYPPDIYTEWKMNGQPQENYKNTPPTMDTDGSYFLYSKLNVKKETWQQGNTFTCSVLHEGLHNHHTEKSLSHSP
light: DIQMTQSPASLSTSLGETVSIECLASEGISNDLAWYQQKSGKSPQLLIYAASRLQDGVPSRFSGSGSGTRYSLKISGMQPEDEADYFCQQSYKYPLTFGSGTKLEIKRADAAPTVSIFPPSTEQLATGGASVVCLMNNFYPRDISVKWKIDGTERRDGVLDSVTDQDSKDSTYSMSSTLSLTKADYESHNLYTCEVVHKTSSSPVVKSFNRNEC
notes: Parental rat hybridoma, rat IgG2a
As a reminder, the EC50 is the concentration at which the effect is half-maximal. Read a low EC50 as an effect from little substance. With B1, in experiment [1], the EC50 came to 0.51 nM.

B2: PI-3015-AB (antibody, human IgG1, kappa)
heavy: not shown
light: DIQMTQSPSSLSASVGDRVTITCRASEGISNDLAWYQQKPGKAPKLLIYAASRLQSGVPSRFSGSGSGTDYTLTISSMQPEDFATYYCQQSYKYPLTFGQGTKLEIKRTVAAPSVFIFPPSDEQLKSGTASVVCLLNNFYPREAKVQWKVDNALQSGNSQESVTEQDSKDSTYSLSSTLTLSKADYEKHKVYACEVTHQGLSSPVTKSFNRGEC
What is called Kd is the free concentration of one partner at which half of the binding sites on the other are occupied at equilibrium, for simple one-to-one binding. As for B2, the figures for the Kd in experiment [2] and in experiment [3] were 0.51 nM and 1.1 nM, respectively. Further, the 50% effective concentration (EC50) in experiment [4] amounted to 0.798 nM.
